From publication PMC12990809

Legend:
Test in all cases: pulldown
hnrnpa0l (Danio rerio) = hnrnpa0l (Danio rerio) (UniProt A0ACM8Q088); settings: 20 nM protein, 1.5 uM RNA pool; 20 mM HEPES pH 7.8, 70 mM KCl, 10 mM NaCl, 10% glycerol, 2 mM DTT, 0.1 ug/uL BSA; 30 min, 4 C
[1] = target: T1, PK22404.1 A169L;A170F;T171A;T450P (Cannabis sativa) (UniProt A0A803PFA7); settings: 20 nM protein, 1.5 uM RNA pool; 20 mM HEPES pH 7.8, 70 mM KCl, 10 mM NaCl, 10% glycerol, 2 mM DTT, 0.1 ug/uL BSA; 30 min, 4 C
T1 sequence: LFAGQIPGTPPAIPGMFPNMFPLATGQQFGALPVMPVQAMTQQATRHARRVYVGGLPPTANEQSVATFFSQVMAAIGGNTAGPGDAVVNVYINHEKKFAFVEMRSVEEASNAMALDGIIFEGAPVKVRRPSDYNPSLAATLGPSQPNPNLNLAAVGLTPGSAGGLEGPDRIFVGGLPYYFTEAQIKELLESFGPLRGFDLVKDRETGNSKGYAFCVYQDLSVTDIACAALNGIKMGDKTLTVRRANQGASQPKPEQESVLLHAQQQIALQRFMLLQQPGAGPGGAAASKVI

[2] = target: T2, CBG04067 ins404_V (Caenorhabditis briggsae) (UniProt Q6E3D5); settings: 20 nM protein, 1.5 uM RNA pool; 20 mM HEPES pH 7.8, 70 mM KCl, 10 mM NaCl, 10% glycerol, 2 mM DTT, 0.1 ug/uL BSA; 30 min, 4 C
T2 sequence: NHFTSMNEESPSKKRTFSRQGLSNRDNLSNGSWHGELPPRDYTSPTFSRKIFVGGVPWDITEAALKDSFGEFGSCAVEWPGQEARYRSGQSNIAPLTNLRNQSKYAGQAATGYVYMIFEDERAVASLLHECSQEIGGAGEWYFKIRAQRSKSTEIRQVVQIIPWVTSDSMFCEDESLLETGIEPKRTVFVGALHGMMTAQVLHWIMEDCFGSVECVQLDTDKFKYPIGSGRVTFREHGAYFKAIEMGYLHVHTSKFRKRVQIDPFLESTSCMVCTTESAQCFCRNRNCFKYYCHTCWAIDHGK

[3] = target: T3, Y69A2AR.32 L314S (Caenorhabditis elegans) (UniProt H2L0S1); settings: 20 nM protein, 1.5 uM RNA pool; 20 mM HEPES pH 7.8, 70 mM KCl, 10 mM NaCl, 10% glycerol, 2 mM DTT, 0.1 ug/uL BSA; 30 min, 4 C
T3 sequence: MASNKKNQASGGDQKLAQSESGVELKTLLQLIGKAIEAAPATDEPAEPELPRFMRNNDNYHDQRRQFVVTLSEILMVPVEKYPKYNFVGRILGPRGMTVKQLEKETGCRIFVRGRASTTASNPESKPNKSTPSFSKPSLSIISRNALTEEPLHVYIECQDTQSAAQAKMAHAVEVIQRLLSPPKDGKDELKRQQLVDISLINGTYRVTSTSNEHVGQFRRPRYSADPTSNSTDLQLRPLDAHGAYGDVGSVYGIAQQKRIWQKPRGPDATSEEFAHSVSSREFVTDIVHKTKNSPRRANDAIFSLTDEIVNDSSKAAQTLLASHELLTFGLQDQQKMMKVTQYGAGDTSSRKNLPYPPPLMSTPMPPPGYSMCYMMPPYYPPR

[4] = target: T4, CBG14639 (Caenorhabditis briggsae) (UniProt A8XKC4); settings: 20 nM protein, 1.5 uM RNA pool; 20 mM HEPES pH 7.8, 70 mM KCl, 10 mM NaCl, 10% glycerol, 2 mM DTT, 0.1 ug/uL BSA; 30 min, 4 C
T4 sequence: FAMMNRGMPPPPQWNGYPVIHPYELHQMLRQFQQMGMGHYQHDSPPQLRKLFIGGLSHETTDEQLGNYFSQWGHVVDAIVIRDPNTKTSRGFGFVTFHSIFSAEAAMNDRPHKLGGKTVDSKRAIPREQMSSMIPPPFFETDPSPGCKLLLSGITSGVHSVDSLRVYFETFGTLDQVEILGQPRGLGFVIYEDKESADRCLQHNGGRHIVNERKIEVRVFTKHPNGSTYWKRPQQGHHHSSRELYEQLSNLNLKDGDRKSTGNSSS

[5] = target: T5, rbm24a (Tetraodon nigroviridis) (UniProt H3CUV7); settings: 20 nM protein, 1.5 uM RNA pool; 20 mM HEPES pH 7.8, 70 mM KCl, 10 mM NaCl, 10% glycerol, 2 mM DTT, 0.1 ug/uL BSA; 30 min, 4 C (protocol of this paper; not …); cited from earlier work
T5 sequence: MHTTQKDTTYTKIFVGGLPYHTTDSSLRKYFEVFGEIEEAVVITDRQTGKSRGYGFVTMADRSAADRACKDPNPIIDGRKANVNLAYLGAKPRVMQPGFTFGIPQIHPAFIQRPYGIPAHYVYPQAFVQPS

HNRNPR (Gallus gallus) = target: T6, HNRNPR (Gallus gallus) (UniProt A0A8V0YGA1); settings: 20 nM protein, 1.5 uM RNA pool; 20 mM HEPES pH 7.8, 70 mM KCl, 10 mM NaCl, 10% glycerol, 2 mM DTT, 0.1 ug/uL BSA; 30 min, 4 C (protocol of this paper; not …); cited from earlier work
T6 sequence: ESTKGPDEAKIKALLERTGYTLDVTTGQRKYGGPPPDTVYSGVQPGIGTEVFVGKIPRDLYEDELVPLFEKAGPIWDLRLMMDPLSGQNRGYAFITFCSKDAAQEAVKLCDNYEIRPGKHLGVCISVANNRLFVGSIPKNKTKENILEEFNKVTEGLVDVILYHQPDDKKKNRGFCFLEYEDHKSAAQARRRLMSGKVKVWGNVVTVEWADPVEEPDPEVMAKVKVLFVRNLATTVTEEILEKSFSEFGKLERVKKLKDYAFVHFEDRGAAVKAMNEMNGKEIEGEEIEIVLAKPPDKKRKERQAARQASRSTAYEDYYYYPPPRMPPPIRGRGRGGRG

[6] = target: T7, AT1G76460 (Arabidopsis thaliana) (UniProt F4I2E4); settings: 20 nM protein, 1.5 uM RNA pool; 20 mM HEPES pH 7.8, 70 mM KCl, 10 mM NaCl, 10% glycerol, 2 mM DTT, 0.1 ug/uL BSA; 30 min, 4 C (protocol of this paper; not …); cited from earlier work
T7 sequence: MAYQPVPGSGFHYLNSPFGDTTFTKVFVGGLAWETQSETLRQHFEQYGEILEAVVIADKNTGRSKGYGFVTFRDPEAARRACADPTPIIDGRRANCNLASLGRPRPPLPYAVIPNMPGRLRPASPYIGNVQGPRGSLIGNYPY

[7] = target: T8, spo5 (Schizosaccharomyces pombe) (UniProt Q2L4W6); settings: 20 nM protein, 1.5 uM RNA pool; 20 mM HEPES pH 7.8, 70 mM KCl, 10 mM NaCl, 10% glycerol, 2 mM DTT, 0.1 ug/uL BSA; 30 min, 4 C
T8 sequence: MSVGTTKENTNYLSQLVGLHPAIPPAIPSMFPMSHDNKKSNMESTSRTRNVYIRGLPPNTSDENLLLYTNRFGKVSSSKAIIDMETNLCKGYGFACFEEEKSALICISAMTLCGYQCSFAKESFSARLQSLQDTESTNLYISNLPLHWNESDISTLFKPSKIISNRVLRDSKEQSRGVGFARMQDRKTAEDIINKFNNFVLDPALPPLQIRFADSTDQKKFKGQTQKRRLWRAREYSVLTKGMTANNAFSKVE

[8] = target: T9, hnrnpr (Xenopus tropicalis) (UniProt A0A8J0QQ94); settings: 20 nM protein, 1.5 uM RNA pool; 20 mM HEPES pH 7.8, 70 mM KCl, 10 mM NaCl, 10% glycerol, 2 mM DTT, 0.1 ug/uL BSA; 30 min, 4 C (protocol of this paper; not …); cited from earlier work
T9 sequence: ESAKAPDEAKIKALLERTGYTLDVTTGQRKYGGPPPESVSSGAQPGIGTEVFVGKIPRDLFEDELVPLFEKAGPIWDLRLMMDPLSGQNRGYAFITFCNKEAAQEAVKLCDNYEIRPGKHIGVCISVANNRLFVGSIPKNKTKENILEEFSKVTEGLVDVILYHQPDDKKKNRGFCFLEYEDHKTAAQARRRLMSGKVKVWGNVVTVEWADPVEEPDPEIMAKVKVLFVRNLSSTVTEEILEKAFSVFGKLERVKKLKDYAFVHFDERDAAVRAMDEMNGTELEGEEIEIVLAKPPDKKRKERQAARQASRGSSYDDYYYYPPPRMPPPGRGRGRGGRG

hnrnpa0l (Danio rerio), sequence (A0ACM8Q088 entry or part of it): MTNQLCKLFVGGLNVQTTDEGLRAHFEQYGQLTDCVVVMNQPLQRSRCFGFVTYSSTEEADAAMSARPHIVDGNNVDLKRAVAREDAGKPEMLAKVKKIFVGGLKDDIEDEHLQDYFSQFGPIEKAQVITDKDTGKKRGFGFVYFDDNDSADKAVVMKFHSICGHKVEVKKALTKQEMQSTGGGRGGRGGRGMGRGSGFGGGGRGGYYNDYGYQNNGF

AUAGGA [RNAcompete motif RNCMPT00340]
binding signal (z-score (mean of top ten 7-mers)) (hnrnpa0l (Danio rerio)): 10.9

UUUUUUG [RNAcompete motif RNCMPT00343]
binding signal (z-score (mean of top ten 7-mers)) [1]: 13.5

GUUUUA [RNAcompete motif RNCMPT00341]
binding signal (z-score (mean of top ten 7-mers)) [2]: 9.44

UACUNG [RNAcompete motif RNCMPT00324]
binding signal (z-score (mean of top ten 7-mers)) [3]: 22.8

AUUAGG [RNAcompete motif RNCMPT00331]
binding signal (z-score (mean of top ten 7-mers)) [4]: 8.86

UGUGUG [RNAcompete motif RNCMPT00285]
binding signal (z-score (mean of top ten 7-mers)) [5]: 10.2

AAAUU [RNAcompete motif RNCMPT00288]
binding signal (z-score (mean of top ten 7-mers)) (HNRNPR (Gallus gallus)): 6.51

AGUGUGA [RNAcompete motif RNCMPT00284]
binding signal (z-score (mean of top ten 7-mers)) [6]: 8.11

AUAUUA [RNAcompete motif RNCMPT00311]
binding signal (z-score (mean of top ten 7-mers)) [7]: 7.81

AAAUU [RNAcompete motif RNCMPT00289]
binding signal (z-score (mean of top ten 7-mers)) [8]: 8.84
